The results in this text go back to patent US20150111829A1 (PHASEBIO PHARMACEUTICALS, published 2015).

Common to all, as to experiment: cell-based or functional assay
Test [1] deals with T1, human Vasoactive Intestinal Peptide Receptor 2 (VPAC2) (human) (UniProt P41587).
T1 sequence (looked up): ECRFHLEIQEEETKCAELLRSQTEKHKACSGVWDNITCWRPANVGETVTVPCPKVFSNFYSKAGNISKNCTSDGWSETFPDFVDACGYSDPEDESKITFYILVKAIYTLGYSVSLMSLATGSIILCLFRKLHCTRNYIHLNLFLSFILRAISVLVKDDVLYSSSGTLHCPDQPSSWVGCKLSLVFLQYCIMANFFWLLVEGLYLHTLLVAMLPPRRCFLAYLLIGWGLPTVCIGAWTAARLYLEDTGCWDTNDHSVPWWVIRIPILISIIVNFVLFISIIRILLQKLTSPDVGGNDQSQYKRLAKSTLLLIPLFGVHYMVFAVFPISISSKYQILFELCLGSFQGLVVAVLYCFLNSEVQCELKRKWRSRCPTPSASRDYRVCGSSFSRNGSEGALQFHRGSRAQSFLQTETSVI

In test [2] the target is T2, human Vasoactive Intestinal Peptide Receptor 1 (VPAC1) (human) (UniProt P32241).
T2 sequence (looked up): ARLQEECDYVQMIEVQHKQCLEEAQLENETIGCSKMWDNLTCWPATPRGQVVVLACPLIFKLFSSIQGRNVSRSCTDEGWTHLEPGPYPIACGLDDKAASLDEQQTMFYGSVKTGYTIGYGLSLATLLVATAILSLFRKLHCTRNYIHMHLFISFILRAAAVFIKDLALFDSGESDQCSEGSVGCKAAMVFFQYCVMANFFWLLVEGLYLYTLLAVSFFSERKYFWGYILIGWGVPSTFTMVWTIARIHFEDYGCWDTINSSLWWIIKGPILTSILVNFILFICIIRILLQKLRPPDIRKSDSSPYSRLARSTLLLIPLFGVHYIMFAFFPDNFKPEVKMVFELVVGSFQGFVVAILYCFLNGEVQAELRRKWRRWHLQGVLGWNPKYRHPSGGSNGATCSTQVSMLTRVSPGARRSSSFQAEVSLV

Test [3] deals with T3, human Vasoactive Intestinal Peptide Receptor 1 (VPAC1) (human, UniProt P32241 31-457).
T3 sequence (looked up): T2 sequence (looked up)

On to HSDAVFTDNYTRLRKQMAVKKYLNSILN (peptide, part only; not given: ELP1-120 polymer, part only) [VIP-ELP1-120 fusion peptide PB1120], for which, in test [1], the cAMP assay in CHO cells expressing VPAC2, fold less active than native VIP (fold less active than native VIP) was determined as 1.5. The molecule further showed a cAMP assay in CHO cells expressing VPAC1, fold less active than native VIP (fold less active than native VIP) in test [2] of 1.4.

B1: M-VIP-ELP1-120 fusion protein PB1046 (other)
chain: MHSDAVFTDNYTRLRKQMAVKKYLNSILNVPGVGVPGVGVPGGGVPGAGVPGVGVPGVGVPGVGVPGGGVPGAGVPGGGVPGVGVPGVGVPGGGVPGAGVPGVGVPGVGVPGVGVPGGGVPGAGVPGGGVPGVGVPGVGVPGGGVPGAGVPGVGVPGVGVPGVGVPGGGVPGAGVPGGGVPGVGVPGVGVPGGGVPGAGVPGVGVPGVGVPGVGVPGGGVPGAGVPGGGVPGVGVPGVGVPGGGVPGAGVPGVGVPGVGVPGVGVPGGGVPGAGVPGGGVPGVGVPGVGVPGGGVPGAGVPGVGVPGVGVPGVGVPGGGVPGAGVPGGGVPGVGVPGVGVPGGGVPGAGVPGVGVPGVGVPGVGVPGGGVPGAGVPGGGVPGVGVPGVGVPGGGVPGAGVPGVGVPGVGVPGVGVPGGGVPGAGVPGGGVPGVGVPGVGVPGGGVPGAGVPGVGVPGVGVPGVGVPGGGVPGAGVPGGGVPGVGVPGVGVPGGGVPGAGVPGVGVPGVGVPGVGVPGGGVPGAGVPGGGVPGVGVPGVGVPGGGVPGAGVPGVGVPGVGVPGVGVPGGGVPGAGVPGGGVPGVGVPGVGVPGGGVPGAGVPGVGVPGVGVPGVGVPGGGVPGAGVPGGGVPGWP
B1: the “cAMP assay in CHO cells expressing VPAC1, fold less active than native VIP” value in test [3] was ~11 fold less active than native VIP.
